Legend:
Settings in all cases: remark: other sources report otherwise
[1] = target: T1, full-length human cystathionine beta-synthase, N-terminal His-tag removed during purification (CBS^FL) (human), P35520; experiment: native gel or EMSA; Coomassie-stained clear-native and blue-native PAGE; 25 mM HEPES pH 7.5, 200 mM NaCl, 2.0 mM TCEP; 1.0 mg/ml, 8.0 µg protein; without or with 1 mM SAM (no apparent effect on the oligomeric status); self-association
T1 chain: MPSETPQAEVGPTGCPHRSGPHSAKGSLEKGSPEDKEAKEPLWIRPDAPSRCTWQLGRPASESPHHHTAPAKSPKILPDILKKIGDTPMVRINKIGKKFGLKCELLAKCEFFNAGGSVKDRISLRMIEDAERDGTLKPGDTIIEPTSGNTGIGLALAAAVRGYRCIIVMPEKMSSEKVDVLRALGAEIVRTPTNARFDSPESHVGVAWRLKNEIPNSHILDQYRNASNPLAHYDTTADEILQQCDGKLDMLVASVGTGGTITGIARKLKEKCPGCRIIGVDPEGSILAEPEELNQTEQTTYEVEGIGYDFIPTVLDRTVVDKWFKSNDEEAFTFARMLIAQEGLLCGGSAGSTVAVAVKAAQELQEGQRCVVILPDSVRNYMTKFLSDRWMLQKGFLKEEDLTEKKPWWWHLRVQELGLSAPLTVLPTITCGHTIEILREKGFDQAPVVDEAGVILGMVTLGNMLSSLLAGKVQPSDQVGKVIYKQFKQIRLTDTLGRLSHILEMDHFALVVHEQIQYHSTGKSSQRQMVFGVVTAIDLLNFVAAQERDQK

[2] = target: T1, full-length human cystathionine …; experiment: SEC; analytical Superose 6 Increase 10/300 GL; 25 mM HEPES pH 7.5, 500 mM NaCl, 0.5 mM TCEP, 5% glycerol; 250 µl loaded at 3.0 mg/ml; self-association
[3] = target: T2, full-length human cystathionine beta-synthase with a permanent C-terminal His-tag (CBS^FL-CHis) (human), P35520; experiment: as above
T2 chain: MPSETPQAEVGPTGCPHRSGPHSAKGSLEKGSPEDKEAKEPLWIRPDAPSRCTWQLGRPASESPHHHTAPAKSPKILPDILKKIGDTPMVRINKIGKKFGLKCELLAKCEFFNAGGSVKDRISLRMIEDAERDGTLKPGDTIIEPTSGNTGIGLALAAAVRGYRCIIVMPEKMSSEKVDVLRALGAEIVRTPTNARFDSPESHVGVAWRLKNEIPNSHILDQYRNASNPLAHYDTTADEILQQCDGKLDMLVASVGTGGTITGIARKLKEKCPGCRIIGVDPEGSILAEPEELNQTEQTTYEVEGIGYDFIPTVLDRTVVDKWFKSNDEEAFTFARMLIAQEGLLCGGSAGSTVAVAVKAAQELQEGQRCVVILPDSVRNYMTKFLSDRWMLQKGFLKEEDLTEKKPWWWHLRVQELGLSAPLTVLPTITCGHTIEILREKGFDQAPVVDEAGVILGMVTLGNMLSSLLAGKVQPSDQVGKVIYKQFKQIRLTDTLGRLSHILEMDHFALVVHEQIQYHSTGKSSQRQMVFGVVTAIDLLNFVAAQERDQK

Binder	stoichiometry N [1]	stoichiometry N [2]	stoichiometry N [3]
full-length human cystathionine beta-synthase, N-terminal His-tag removed during purification (CBS^FL), P35520 1-551 (enzyme) MPSETPQAEVGPTGCPHRSGPHSAKGSLEKGSPEDKEAKEPLWIRPDAPSRCTWQLGRPASESPHHHTAPAKSPKILPDILKKIGDTPMVRINKIGKKFGLKCELLAKCEFFNAGGSVKDRISLRMIEDAERDGTLKPGDTIIEPTSGNTGIGLALAAAVRGYRCIIVMPEKMSSEKVDVLRALGAEIVRTPTNARFDSPESHVGVAWRLKNEIPNSHILDQYRNASNPLAHYDTTADEILQQCDGKLDMLVASVGTGGTITGIARKLKEKCPGCRIIGVDPEGSILAEPEELNQTEQTTYEVEGIGYDFIPTVLDRTVVDKWFKSNDEEAFTFARMLIAQEGLLCGGSAGSTVAVAVKAAQELQEGQRCVVILPDSVRNYMTKFLSDRWMLQKGFLKEEDLTEKKPWWWHLRVQELGLSAPLTVLPTITCGHTIEILREKGFDQAPVVDEAGVILGMVTLGNMLSSLLAGKVQPSDQVGKVIYKQFKQIRLTDTLGRLSHILEMDHFALVVHEQIQYHSTGKSSQRQMVFGVVTAIDLLNFVAAQERDQK	> 4	> 4	–
full-length human cystathionine beta-synthase with a permanent C-terminal His-tag (CBS^FL-CHis), P35520 1-551 (enzyme) MPSETPQAEVGPTGCPHRSGPHSAKGSLEKGSPEDKEAKEPLWIRPDAPSRCTWQLGRPASESPHHHTAPAKSPKILPDILKKIGDTPMVRINKIGKKFGLKCELLAKCEFFNAGGSVKDRISLRMIEDAERDGTLKPGDTIIEPTSGNTGIGLALAAAVRGYRCIIVMPEKMSSEKVDVLRALGAEIVRTPTNARFDSPESHVGVAWRLKNEIPNSHILDQYRNASNPLAHYDTTADEILQQCDGKLDMLVASVGTGGTITGIARKLKEKCPGCRIIGVDPEGSILAEPEELNQTEQTTYEVEGIGYDFIPTVLDRTVVDKWFKSNDEEAFTFARMLIAQEGLLCGGSAGSTVAVAVKAAQELQEGQRCVVILPDSVRNYMTKFLSDRWMLQKGFLKEEDLTEKKPWWWHLRVQELGLSAPLTVLPTITCGHTIEILREKGFDQAPVVDEAGVILGMVTLGNMLSSLLAGKVQPSDQVGKVIYKQFKQIRLTDTLGRLSHILEMDHFALVVHEQIQYHSTGKSSQRQMVFGVVTAIDLLNFVAAQERDQK	–	–	> 4

Source: PMC10995199, “Architecture and regulation of filamentous human cystathionine beta-synthase” (Nature Communications, 2024)
